Results taken from the supplement of paper PMC9170038.

How the values were obtained:
MS2 coat protein [1] = assay: apparent KD of MS2 coat protein, switch ON state; designed switch direction (-1 OFF switch, 1 ON switch): -1; higher = weaker reporter binding; conditions: FMN input: 0 or 200 uM; Eterna round: R93 (includes R88 designs)
Procedure, shortened: (§1)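 Apparent KD was obtained for each design as the median of normalised binding-curve fits over its clusters. RNA switches transcribed on-chip from Illumina sequencing clusters were titrated with SNAP-549-labelled MS2 coat protein (twofold steps, 0.7 or 1.5 nM to 3 µM) in 100 mM Tris-HCl pH 7.5, 80 mM KCl, 4 mM MgCl2, without or with constant ligand.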

MS2 coat protein [2] = assay: apparent KD of MS2 coat protein, switch OFF state (with FMN for OFF switches, without FMN for ON switches); designed switch direction (-1 OFF switch, 1 ON switch): -1; higher = weaker reporter binding; conditions: FMN input: 0 or 200 uM; Eterna round: R93 (includes R88 designs)
Procedure, shortened: as §1

MS2 coat protein [3] = assay: apparent KD of MS2 coat protein; designed switch direction (-1 OFF switch, 1 ON switch): 1; higher = weaker reporter binding
Procedure, shortened: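 On Illumina chips, designed RNA switches with common flanks were made by stalled E. coli RNA polymerase. Titrations with SNAP-549-labelled MS2 coat protein, doubling from 0.7 or 1.5 nM to 3 µM, were done with no input, with 200 uM small-molecule ligand, or with an oligonucleotide input. Apparent KD is the median per design over clusters, from curve fits of normalised cluster fluorescence.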

[4] = input ligand: microRNA oligo, concentration not stated

Row | Sequence | apparent KD of MS2 coat protein (MS2 coat protein [1]) [nM] | apparent KD of MS2 coat protein (MS2 coat protein [2]) [nM] | other results
1 | AAAUAGUUAGGAUAUACAUGAGGAUCACCCAUGUGGACUGAUGUCGCGUGAUUCAGUGGUAGAAGGGACUCAAA [EX2 Malc#36] | 47.3 | 75 | 
2 | AAGAGGUGAGGAUAUCGAAGAAGAAGAAGAAGAAGAAGAAACGAGAAGGCACAUGAGGAUCACCCAUGUAAGAA [Exclusion 4] | 23.4 | 18.8 | 
3 | AAGAAGGUAGGAUAUACUAAAGAAACUAAUGCAAAGAUAAAACAUGAGGAUCACCCAUGUAGAAGGGCCAGAAA [JR_Exc002_Sub016] | 35.6 | 25.1 | 
4 | AACAGUACAGGAUAUACAUGAGGAUCACCCAUGUAGAGAGAAUAAAACAAAAAUAAAAGUAGAAGGGUACUGGA [Ruby 48] | 21.8 | 19.3 | 
5 | AGUCAUACAGGAUAUACAUGAGGAUCACCCAUGUAAAUCCUAAAAAAGUGAUCCUCAUGUAGAAGGGUAUGACA [EX3 220: Super Stable 20] | 19.1 | 19.7 | 
6 | AGUAUGCGAGGAUAUACAUGAGGAUCACCCAUGUGAGAGAUAAGAGUGAGAAAGACAAGUAGAAGGCGCGUACA [JL Lego Mod 25] | 78.4 | 71.7 | 
7 | GGUUGGCGAGGAUAUACAUGAGGAUCACCCAUGUGAGAGUAAAAAGUGAGAAAGAAAAGUAGAAGGCGCUGACG [salish99-ex3-46] | 27.1 | 85.1 | 
8 | AAAAAGGGAGGAUAUACAUGAGGAUCACCCAUGUAUCAGACGAAAAAGAGUCUGAAAUGUAGAAGGCCCAAAAA [65%, Moding Exclusion3-cac2, 2] | 20.7 | 35.8 | 
9 | AACUGACAUGAGGAUCACCCAUGUCAGGAUAUGACAUCGAAAAAAAAAAAAAUCGUUGUCAGAAGGGACAUGGG [Design 73: Sub-opt QB] | 11.9 | 9.44 | 
10 | AAAAAACAUGAGGAUCACCCAUGUAAGGAUAUCUAAAAUAAAAGAAAAAUAAAGAAAAGGAGAAGGUACAAGGA [JL wbt mod 25] | 13.8 | 32.6 | 
11 | AACAGUACAGGAUAUACAUGAGGAUCACCCAUGUGAAAAUUAAGUGGGAAACCACAGUGUAGAAGGGUACUGGA [Mat - Exclusion 3 - Eli mod - D54] | 102 | 51.9 | 
12 | AGCUAGUCAGGAUAUACGAACAAGAAAAAAGACGAGAACGGACAUGAGGAUCACCCAUGUAGAAGGGACUAGCA [Diamond 9] | 23.8 | 26.3 | 
13 | AACUAGUGAGGAUAUGCAAGAAAAAAAAAAAAAAUAAAGGGACAUGAGGAUCACCCAUGUAGAAGGCACUAACA [Diamond 68] | 42.7 | 58.8 | 
14 | AAACUACUAGGAUAUACAACGGUGUCCUAACUACUAAGAAAACAUGAGGAUCACCCAUGUAGAAGGAGUAGUGA [Lauslabe] | 33.6 | 30.2 | 
15 | GGUUGAAAAGGAUAUACAUGAGGAUCACCCAUGUGAGAGAAAAAAGUGAGAAAGAAAAGUAGAAGGUUUUGACG [salish99-ex3-61] | 22.8 | 44 | 
16 | AAGAAACAUGAGGAUCACCCAUGUCAGGAUAUUGAAAAGAAAAGAAAAGAAAGAAGAACAAGAAGGGACAAAGG [Neferkare (III) Neby] | 37.1 | 40.3 | 
17 | AAAACACAUGAGGAUCACCCAUGUGAGGAUAUGCUAGUGAAAAUAAAAAUAAAACAUAGCAGAAGGCACAAGGA [Amethyst 79] | 43.7 | 45.8 | 
18 | CCUGUGUGAGGAUAUGGUAAAAAAAAAAAAAAAAAGCUCCUCCAGAAGGCACAUGAGGAUCACCCAUGUCGUGG [Jolly's Folly 15 - Jieux - Exclusion 4] | 18.9 | 38.2 | 
19 | AAGAACAGAGGAUAUGCUAAAGAAAUAAAAAUAAAUAAAGAACAUGAGGAUCACCCAUGUAGAAGGCUGAAGAA [Seven kings] | 28.3 | 28 | 
20 | AAAAAGAGAGGAUAUACAUGAGGAUCACCCAUGUGAAAGACGAAAAAAAGUCUAAAGUGUAGAAGGCUCAAAAA [65%, Moding Exclusion3-cac2, 14] | 25.3 | 104 | 

Row | Sequence | apparent KD of MS2 coat protein (MS2 coat protein [1]) [nM] | apparent KD of MS2 coat protein (MS2 coat protein [2]) [nM] | other results
21 | AGAAACUGAGGAUAUACUUUGGGAAAAGAAAAGAUGAUGUUACAUGAGGAUCACCCAUGUAGAAGGCAGAAAGA [Mat - Exclusion 2 - Mod - D152] | 25.5 | 30.3 | 
22 | AAAAAACAUGAGGAUCACCCAUGUAAGGAUAUGCUGAAAAAACACUGGAAACAGUGCAGCAGAAGGUACAAAAA [66%, Wbt, 35] | 21.5 | 27.2 | 
23 | GGUUGGCGAGGAUAUACAUGAGGAUCACCCAUGUGAGAGAAAUAAGUGAGAAAGAAAAGUAGAAGGCGCUGACG [salish99-ex3-43] | 87.7 | 1700 | 
24 | AAAAAACAUGAGGAUCACCCAUGUGAGGAUAUGAUGAAAGAUUGAAAAAGGUUGAAAGUCAGAAGGUAUGUGAA [Exclusion 1.3] | 30.4 | 35.7 | 
25 | CUCUAGUGAGGAUAUGGAAGAAAAGAAGAGAAAGAAAAGAACCAGAAGGCACAUGAGGAUCACCCAUGUAAGAA [EteRNA is fun!] | 38.9 | 46.3 | 
26 | CUCUUGUGAGGAUAUCUAAGAAAAGAAAAGAAAGAAAAGAAAGAGAAGGCACAUGAGGAUCACCCAUGUAAGAA [EteRNA is fun!] | 35.7 | 84.6 | 
27 | GCAAAGUGAGGAUAUACGCGAACAAUAAAAAUAAAGAAAGCGUAGAAGGCACAUGAGGAUCACCCAUGUCCAGC [Mat - Exaclusion 4 - Eli mod - D78] | 23.5 | 25.9 | 
28 | AAACGUAGAGGAUAUACAGGGCUAUUACGAAAGUAAUAGAAACAUGAGGAUCACCCAUGUAGAAGGCUACGAAA [Mod2 of Meechl 64% 1] | 162 | 67.9 | 
29 | AAGAAGUGAGGAUAUCGAAGACUGUCGAAAAGACAGUCGAACGAGAAGGCACAUGAGGAUCACCCAUGUGAUAA [Mat - Exaclusion 4 - Eli mod - D70] | 28.2 | 107 | 
30 | CAGUACUGAGGAUAUACAUGAGGAUCACCCAUGUGGUUAAGCUAGGAAACUAGCACAUGUAGAAGGCAGUACUG [Ex3: 814] | 50.1 | 19.5 | 
31 | AGCAAGUGAGGAUAUCUGGAUAGGAAAAAGAAAACCUAUCCAGAGAAGGCACAUGAGGAUCACCCAUGUAAAAA [JL cataway mod 7] | 39.1 | 41.4 | 
32 | AGUCUGAGAGGAUAUACAUGGGAAAAAAAAGUCAGAUCCCUACAUGAGGAUCACCCAUGUAGAAGGCUCUGACA [Ex2 Design 147: Sub-opt 11] | 22.2 | 11.4 | 
33 | ACAGCUGAAGGAUAUACUUGGAAAAAAAAAAAAAAAAAAAAACAUGAGGAUCACCCAUGUAGAAGGUCAGCUGA [Brourd - Exclusion 2 - Sub 2] | 50.3 |  | 
34 | CCGCGCUGUCGAGAGGAUAUGCGGUGAUGGACAUGAGGAUCACCCAUGUUAGCGAUAGCAUUACUGUAGAAGGCUCUACGGCGGC [JL-ss2-3.09 ViennaUCT mod] (Eterna round: R96, puzzle: Same State 2) |  |  | apparent KD of MS2 coat protein (MS2 coat protein [3]; input ligand: FMN 200 uM): 11.2 nM; apparent KD of MS2 coat protein (MS2 coat protein [3]; [4]): 10.2 nM; apparent KD of MS2 coat protein (MS2 coat protein [3]; input ligand: none): 16.3 nM
35 | GCAUGGUUACAUGCUAUACAUGAGGAUCACCCAUGUGAUGGGAAGGAUAUGUCCUCAAUUAGUGGACAGAAGGUCCAAACAUUU [Fiskers NG3ss - 1] (Eterna round: R96, puzzle: Same State NG 3) |  |  | apparent KD of MS2 coat protein (MS2 coat protein [3]; input ligand: FMN 200 uM): 136 nM; apparent KD of MS2 coat protein (MS2 coat protein [3]; [4]): 234 nM; apparent KD of MS2 coat protein (MS2 coat protein [3]; input ligand: none): 939 nM
36 | GUGUGUUGCGGGCAGGAUAUGUACUUGAGUACAUGAGGAUCACCCAUGUGCGGGUGUUUCACCCGACAGAAGGGCCUAUCGCGAC [JL-ss2-3.25 ViennaUCT mod] (Eterna round: R96, puzzle: Same State 2) |  |  | apparent KD of MS2 coat protein (MS2 coat protein [3]; input ligand: FMN 200 uM): 252 nM; apparent KD of MS2 coat protein (MS2 coat protein [3]; [4]): 457 nM; apparent KD of MS2 coat protein (MS2 coat protein [3]; input ligand: none): 1070 nM
37 | GUGAGAUGUUCAGGAUAUUUCAGGAUAGUUAAUCCAAGGCCAUCACAUGAGGAUCACCCAUGUCGAGAGAAGGGAAUUCUCAGG [Eternabot solution 43] (Eterna round: R96, puzzle: Same State NG 2) |  |  | apparent KD of MS2 coat protein (MS2 coat protein [3]; input ligand: FMN 200 uM): 378 nM; apparent KD of MS2 coat protein (MS2 coat protein [3]; [4]): 331 nM; apparent KD of MS2 coat protein (MS2 coat protein [3]; input ligand: none): 433 nM
38 | GCUAGAAAUAAAGCCAACAUGAGGAUCACCCAUGUAUGUUGGCAGGAUAUCGUUUGCAAAGCAAACGAGAAGGGCUAAACUAGC [Mat - Same State NG 3 - JL Mod - D5] (Eterna round: R96, puzzle: Same State NG 3) |  |  | apparent KD of MS2 coat protein (MS2 coat protein [3]; input ligand: FMN 200 uM): 141 nM; apparent KD of MS2 coat protein (MS2 coat protein [3]; [4]): 138 nM; apparent KD of MS2 coat protein (MS2 coat protein [3]; input ligand: none): 147 nM
39 | AAAAUUUCUGCACAGGAUAUGUAGUGUUUCACAUGAGGAUCACCCAUGUCAAAACCAGAGACUGUACAGAAGGGUGCGGUCGGAC [Onedxequ] (puzzle: Same State 2) |  |  | apparent KD of MS2 coat protein (MS2 coat protein [3]; Eterna round: R95, input ligand: FMN 200 uM): 15.8 nM; apparent KD of MS2 coat protein (MS2 coat protein [3]; Eterna round: R95, input ligand: microRNA oligo, concentration not stated): 10.3 nM; apparent KD of MS2 coat protein (MS2 coat protein [3]; Eterna round: R95, input ligand: none): 14.6 nM
